B1: IL6RPMP108C10 (VHH)
VHH: EVQLVESGGGLVQPGGSLRLSCTASGRTFSDYDMGWFRQAPGKERECVAVIDTNGDNTLTVGSVKGRFAISRDNAKNTVYLQMNSLLPEDTAVYTCAAGAWSSLRSTAANYWGQGTQVTVSS
B2: IL6RPMP101A3 (VHH)
VHH: EVQLVESGGGLVQAGGPLRLSCTASGRTFTDYDMGWFRQAPGKEREVVAIIDTNGDNTLTVGSVKGRFAISSDNAKNTVYLQMNSLLPEDTAVYTCAAGAWSALRRSVANYWGQGTQVTVSS
B3: IL6RPMP104A8 (VHH)
VHH: EVQLVESGGGLVQAGGSLRLSCTASGRTFSDYDMGWFRQAPGKEREFVAVIDTNGGHTLTVGSVKGRFAISSDNAKNTVYLQMNSLVPEDTAVYTCAAGAWSSLRKTAASYWGQGTQVTVSS
B4: IL6RPMP101D6 (VHH)
VHH: EVQLVESGGGLVQAGGSLRLSCTASGRTFSDYDMGWFRQAPGKERECVAIIDTNGDNTLIVGSVKGRFAISSDNAKNTVYLQMNSLLPEDTAVYTCAAGVWSSLRHTAANYWGQGTQVTVSS
B5: IL6RPMP101G3 (VHH)
VHH: EVQLVESGGGLVQAGGSLRLSCTASGRTFSDYDMGWFRQAPGKERECVAIIDTNGDNTLIVGSVKGRFAISSDNAKNTVYLQMNSLLPEDTAVYTCAAGVWSSLRHTAANYWGQGTQVTVSS
B6: IL6RPMP101B2 (VHH)
VHH: EVQLVESGGGLVQAGGSLRLSCTASGRTFTDYDMGWFRQAPGKEREVVAIIDTNGDNTLTVGSVKGRFAISSDNAKNTVYLQMNSLLPEDTAVYTCAAGAWSALRRSVANYWGQGTQVTVSS
B7: IL6RPMP104B9 (VHH)
VHH: EVQLVESGGGLVQAGGSLRLSCTASGRTFSDYDMGWFRQAPGKERECVAIIDTNGDNTLIVGSVKGRFAISSDNAKNTVYLQMNSLLPEDTAVYTCAAGVWSSLRHTAANYWGQGTQVTVSS
B8: IL6RPMP102G3 (VHH)
VHH: EVQLVESGGGLVQAGGSLRLSCAASGSIDRINAMGWYRQAPGKQRDFLAVITDGDKTLYADSVKGRFTISNDNAKNTVYLQMNSLKPEDTAVYYCNAYQAGWGDYWGQGTQVTVSS
B9: IL6RPMP101F6 (VHH)
VHH: EVQLVESGGGLVQAGGSLRLSCAASGSIFSIKAMGWYRQAPGKQRELVARITSGGSTYYADSVKGRFTISRDNAKNTVYLQMNSLKPEDTAVFYCNAIVTDSDYDLGNDYWGQGTQVTVSS
B10: IL6RPMP103D7 (VHH)
VHH: EVQLVESGGGLVEAGGSLRLSCAAAGRTLSSYSMAWFRQAPGKEREFVAIIRGNPSRTYHSDSVKGRFTASRDNAKNTVYLQMNRLEPEDTAVYYCAADPPPFASDYSAPQSYDYWGQGTQVTVSS
B11: IL6RPMP101B3 (VHH)
VHH: EVQLVESGGGLVQAGGSLRLSCAASGSIFRINAMGWYRQAPGKQRELVAAAISGGSTNYADFVKGRFTISRDNAKNTVYLQMNSLKPEDTAVYYCNALVVSHNYSDYVPFPDDYWGQGTQVTVSS
B12: IL6RPMP105D3 (VHH)
VHH: EVQLEESGGGLVQAGGSLRLSCAASGSIFRINAMGWYRQAPGKQRELVAAAISGGSTNYADFVKGRFTISRDNAKNTVYLQMNSLKPEDTAVYYCNALVVSHNYSDYVPFPDDYWGQGTQVTVSS
B13: IL6RPMP120F4 (VHH)
VHH: EVQLVESGGGLVQTGGSLRLSCAVSGRTDSTASVGWFRQAPGKQREWVVGISSGGSTHYADSVKGRFISSQDDAKNTVYLQMNSLKPEDTAIYYCAIAHGSSTYNYWGQGTQVTVSS
B14: IL6RPMP103A2 (VHH)
VHH: EVQLVESGGGLVQPGGSLRLSCAASGSIFSINTMGWYRQVPGKQRELVATVRSGSITNYADSVQDQFTITRDIDENTVYLQMNSLKPEDTAVYYCLTRASVPGRGYQDYWGQGTQVTVSS
B15: IL6RPMP101G11 (VHH)
VHH: EVQLVESGGGLVQPGGSLRLSCAASASGFTLDYYAIGWFRQAPGKEREGVSCISSTDGSTYYADSVKGRFTISRDNAKNTVYLQMNSLNPEDTGVYTCAAVLTTAQAMGVPTRSYEYDYWGQGTQVTVSS
B16: IL6RPMP103B2 (VHH)
VHH: EVQLVESGGGLVQPGGSLRLSCAASGSTFSINMMAWYCQAPGKQRELVASISSGGGINYADSVKGRFTISRDYAENSVDLQMNSLKPEDTAVYYCNARGTYLNGDHYSTNYNSWGQGTQVTVSS
B17: IL6RPMP100D11 (VHH)
VHH: EVQLVESGGGLVQAGDSLRLSCLASGRSFKDDAMGWFRQAPGKEREFVSGIDWRGNIVDAESVKGRFTISRENAKNTLYLQMNHLKPEDTAVYYCAASSVFSDLRYRKNPKYWGQGTQVTVSS
B18: IL6RPMP120C10 (VHH)
VHH: EVQLVESGGGLVQAGGSLSLSCATSGRTISDDTMAWFRQAPGKEREFVAIITFNGARTHYSDSVRDRFTISRDNAKNTVYLQMNSLKSEDTAVYYCAASTKYYSSTYNYIHPAFYDIWGQGTQVTVSS
B19: IL6RPMP104E4 (VHH)
VHH: EVQLVESGGGTVQAGGSLKLSCAASGRTFTNYAMGWFRQAPGKEREFVAAIAYATHFADSVKGRFTISRGNAKNTVYLQMNSLKPEDTAVYYCAADLSLSKMVSKITSDMDYWGKGTLVTVSS
B20: IL6RPMP104E7 (VHH)
VHH: EVQLVESGGGLVQAGGSLRLSCAAGGSIFSINAMGWYRQAPGKQRELVASITSGGSTTYADSVKGRFTISRDNAKDTVYLQMNSLKPEDTAVYYCNAHIRFPFPNDYWGQGTQVTVSS
B21: IL6RPMP101G1 (VHH)
VHH: EVQLVESGGGLVQPGGSLRLSCAASGGTLDYYAIGWFRQAPGKEREGVSCISSSDGSTYYASSVKGRFTVSRDKAKNTVYLQMNSLKPEDTAVYYCAFVFTTAQAMGVPNNPYEYDFWGQGTQVTVSS
B22: IL6RPMP107C3 (VHH)
VHH: EVQLVESGGGLVQAGGSLNLSCNASGDIGSINAMGWHRQAPGQQREWVAVITDTDSTIYPDSVKGRFAISRDGAKNTVHLRMSSLKPEDTAVYYCNAYQAGWGDYWGQGTQVTVSS
B23: IL6RPMP106D6 (VHH)
VHH: EVQLVESGGGLVQAGGSLRLSCAASGFTFDDYAIGWFRQAPGKEREGVSCMISSDGSTYYADSVKGRFTISSDNAKNTVYLQMDSLKPEDTAVYYCAADLSLYGCYVGDRDLYDYDYWGQGTQVTVSS
B24: IL6RPMP107B4 (VHH)
VHH: EVQLVESGGGLVQAGGSLRLSCVASGLRLNMHRMGWFRQAPGKEREFVARIFTDDGDSYYADSVQGRFTISGDNAKNTVYLQMNSLKPEDTGVYFCAAGYMSGAESPIGYDNWGQGTQVTVSS
B25: IL6RPMP103A5 (VHH)
VHH: EVQLVESGGGLVQAGDSLRLSCVASGLPFSTLHMGWFRQAPGKEHESVSAISSDGGSEYYAGSVKGRFTISRDNAKNTVYLQMNSLKPEDTAVYYCAADPRRIGANIKYSDYWGQGTQVTVSS

Key:
[1] = target: T1, native soluble IL-6R in human plasma (human, UniProt P08887); experiment: ELISA 1, periplasmic extract; competitor IL-6; human plasma
Description: (§1) In this ELISA, plasma was used as a source of native soluble IL-6R. By this assay, we aimed to confirm the alphascreen results and to get a view on the cross-reactivity of the clones towards cynomolgous IL-6R. Human plasma (ELISA 1 and ELISA 3) or cynomolgous plasma (ELISA 2) were pre-incubated with a dilution of the periplasmic extract of the clones together with human IL-6 (50 ng/mL). Subsequently, plasma soluble IL-6R was captured on a B-N12 coated plate and bound IL-6 was detected using anti-IL-6 antibody BAF206 and streptavidin-HRP (ELISA 1 and ELISA 2). The ELISA signal dropped when the Nanobody clone could compete with IL-6 for binding to soluble IL-6R. ELISA 3 was a parallel ELISA in which the detection antibody was replaced by anti-IL-6R antibody BAF227 to exclude false positive competitors, which actually compete with B-N12 (e.g. family 2). Depicted in Table C-5 is the ratio of the OD450 value of the test sample versus the blank OD450 (mock sample). Clones were ordered based on ELISA 1 data.

[2] = target: soluble IL-6R in cynomolgous plasma (cynomolgus monkey, UniProt A0A2K5WN54); experiment: ELISA 2, periplasmic extract; competitor IL-6; cyno plasma
Description: as §1

[3] = target: T1, native soluble IL-6R in human plasma; experiment: ELISA 3, periplasmic extract; competitor BN-12; human plasma
Description: as §1

Row | Binder | OD450 ratio sample/blank [1] | OD450 ratio sample/blank [2] | OD450 ratio sample/blank [3]
1 | B1 | 1.07 | 0.795 | 1.04
2 | B2 | 1.08 | 0.687 | 0.946
3 | B3 | 2.04 | 0.725 | 0.973
4 | B4 | 1.09 | 0.731 | 0.948
5 | B5 | 1.08 | 0.773 | 0.892
6 | B6 | 1.09 | 0.727 | 0.909
7 | B7 | 2.06 | 0.766 | 1
8 | B8 | 1.76 | 1.32 | 0.968
9 | B9 | 0.0703 | 0.0273 | 0.947
10 | B10 | 0.355 | 0.0821 | 0.98
11 | B11 | 0.402 | 1.05 | 0.972
12 | B12 | 0.457 | 0.995 | 1.01
13 | B13 | 0.498 | 0.0331 | 0.923
14 | B14 | 2.04 | 1.09 | 0.993
15 | B15 | 0.227 | 0.0538 | 0.468
16 | B16 | 1.76 | 0.81 | 1.02
17 | B17 | 1.9 | 0.962 | 0.969
18 | B18 | 0.139 | 0.0351 | 1.01
19 | B19 | 1.34 | 0.838 | 1.03
20 | B20 | 2.04 | 0.993 | 1.01
21 | B21 | 0.148 | 0.0937 | 0.639
22 | B22 | 0.438 | 0.904 | 1.06
23 | B23 | 1.27 | 1.13 | 1
24 | B24 | 1.2 | 0.918 | 1.04
25 | B25 | 2.12 | 0.859 | 0.943

Source: patent US10618964B2, “Nanobody against IL-6R” (Ablynx N.V., dated 2020)
